# Key:
# A2_F24 VI56IV (RSV A2) = A2_F24 VI56IV (RSV A2) (UniProt P03420); assay: Octet BLI endpoint, CR9501 on sensor, culture supernatant
# B1_N67I, S215P (RSV B1) = B1_N67I, S215P (RSV B1) (UniProt O36634); assay: quantitative Octet, CR9501 on sensor, culture supernatant
# [1] = biological target: B1_N67I, S215P loop (RSV B1) (UniProt O36634); assay: as above
substance,measurement,setting,value
CR9501 (antibody),% CR9501 binding after 5 days at 4 C relative to day 1,A2_F24 VI56IV (RSV A2),54%
same,% concentration measured with CR9501 after 5 days at 4 C relative to day of harvest,"B1_N67I, S215P (RSV B1)",90.9%
same,% concentration measured with CR9501 after 5 days at 4 C relative to day of harvest,[1],108%
